According to US20180362652A1 (Biogen, published 2018):
Read-outs that look alike come from different tables or passages of the source.

What was measured:
[1] = target: T1, monomeric huBDCA2 ectodomain (human, UniProt Q8WTT0 45-213); assay: Octet, mAb from conditioned medium on anti-human Fc tips, monomeric huBDCA2 in solution
T1 construct: Prepared by proteolytic cleavage of the purified muIgG2a Fc-huBDCA2 fusion protein (pEAG2423); also called human BDCA2 ectodomain; human BDCA2 ECD
T1 sequence: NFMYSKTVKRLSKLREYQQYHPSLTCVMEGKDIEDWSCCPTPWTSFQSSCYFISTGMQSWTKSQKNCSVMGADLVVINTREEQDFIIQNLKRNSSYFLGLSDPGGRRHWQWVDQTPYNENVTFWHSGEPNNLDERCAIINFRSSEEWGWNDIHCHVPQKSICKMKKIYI
Method: (§1) Backmutation to the unpaired cysteine, i.e., S95C, was constructed by site-directed mutagenesis producing plasmid pYL749. Variants S95T, S95A, and S95V were constructed by site-directed mutagenesis producing plasmids pYL750, pYL751, and pYL752, respectively. The full-length light chain cDNA sequences in the resultant plasmids were confirmed by DNA sequencing. […] Conditioned medium was harvested at 2 days post-transfection. […] Conditioned medium containing the C95 variant mAbs was assayed by Octet for binding to human BDCA2 ectodomain. Antibodies from conditioned medium from transiently transfected cells were bound to anti-human Fc tips, then monomeric huBDCA2 was flowed over the Octet tips, to examine binding and dissociation.

[2] = target: T1, monomeric huBDCA2 ectodomain; assay: as above; remark: listed apart in the source
Method: The monomeric huBDCA2 ectodomain was prepared by proteolytic cleavage from the purified muIgG2a Fc-huBDCA2 fusion protein (relevant plasmid: pEAG2423). Antibodies from conditioned medium from transiently transfected cells were bound to anti-human Fc tips, and then monomeric huBDCA2 was flowed over the Octet tips, to examine binding and dissociation.

[3] = target: T2, human BDCA2 (full-length, cell surface) (human, UniProt Q8WTT0 1-213); assay: direct binding FACS, conditioned medium on CHO cells co-expressing human BDCA2 and FcεRIγ; column C (midpoint) of the printed 4-P fit, X in ng/ml; A 8.32, B 1, D 102, R^2 0.999
T2 construct: also called huBDCA2; surface human BDCA2
T2 sequence: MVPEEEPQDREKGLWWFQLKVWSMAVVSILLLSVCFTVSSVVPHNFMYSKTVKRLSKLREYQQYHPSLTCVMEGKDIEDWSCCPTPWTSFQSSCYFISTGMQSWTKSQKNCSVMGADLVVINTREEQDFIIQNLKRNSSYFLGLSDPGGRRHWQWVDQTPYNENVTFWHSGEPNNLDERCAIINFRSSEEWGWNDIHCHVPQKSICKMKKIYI
Method: (§2) Conditioned medium was assayed by direct binding FACS on stably transfected DG44 CHO cells co-expressing full-length BDCA2 and FcεRIγ cDNAs (human or cynomolgus monkey), (relevant expression vectors are human BDCA2/FcεRIγ: pEAG2456, cyno BDCA2/FcεRIγ: pEAG2668).

[4] = target: T3, cynomolgus monkey BDCA2 (full-length, cell surface, E73 SNP form) (cynomolgus monkey, UniProt Q8WTT0 1-213 (human entry)); assay: direct binding FACS, conditioned medium on CHO cells co-expressing cynomolgus BDCA2 and FcεRIγ; column C (midpoint) of the printed 4-P fit, X in ng/ml; A 3.13, B 0.874, D 71.9, R^2 0.998
T3 construct: also called cyno BDCA2; surface cynomolgus monkey BDCA2
T3 chain: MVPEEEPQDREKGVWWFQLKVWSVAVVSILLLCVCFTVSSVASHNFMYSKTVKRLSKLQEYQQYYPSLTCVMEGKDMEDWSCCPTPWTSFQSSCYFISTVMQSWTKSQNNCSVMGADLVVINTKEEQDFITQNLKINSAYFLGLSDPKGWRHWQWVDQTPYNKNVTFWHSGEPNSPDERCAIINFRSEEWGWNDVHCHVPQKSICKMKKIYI
Method: as §2

[5] = target: T2, human BDCA2 (full-length, cell surface); assay: direct binding FACS, conditioned medium on CHO cells co-expressing human BDCA2 and FcεRIγ; column C (midpoint) of the printed 4-P fit, X in ng/ml; A 3.85, B 0.622, D 97.2, R^2 0.999
Method: as §2

[6] = target: T3, cynomolgus monkey BDCA2 (full-length, …); assay: direct binding FACS, conditioned medium on CHO cells co-expressing cynomolgus BDCA2 and FcεRIγ; column C (midpoint) of the printed 4-P fit, X in ng/ml; A 1.62, B 0.79, D 41.8, R^2 1; the fit is extrapolated: the highest point drawn is at about 4000 ng/ml with MFI about 16, no plateau
Method: as §2

[7] = target: T1, monomeric huBDCA2 ectodomain; assay: Octet, monomeric huBDCA2
Method: as §1

B1: hu24F4 H4/L1 (C95S) (antibody, V domains shown)
VH: DVQLVESGGGLVKPGGSLRLSCAASGFTFSTYTMSWVRQAPGKGLEWVATISPGDSFGYYYPDSVQGRFTISRDNAKNSLYLQMNSLRAEDTAVYYCTRDIYYNYGAWFAYWGQGTLVTVSS
VL: DIQLTQSPSSLSASVGDRVTITCKASQSVDYDGDSYMNWYQQKPGKAPKLLIYAASTLESGVPSRFSGSGSGTDFTLTISSLQPEDFATYYCQQSNEDPRTFGQGTKVEIK
notes: Human IgG1/kappa; also called 24F4-H4/L1 (YL740/YL746); 24F4S
- Kd [1]: 0.548 nM
- koff [1]: 0.000398 s⁻¹
- kon [1]: 727000 M⁻¹ s⁻¹
- Kd [2]: 0.744 nM
- koff [2]: 0.000408 s⁻¹
- kon [2]: 549000 M⁻¹ s⁻¹
- EC50 [3]: 0.2 µg/mL
- EC50 [4]: 0.21 µg/mL

B2: hu24F4 H3/L1 (antibody, V domains shown)
VH: EVQLVESGGGLVKPGGSLRLSCAASGFTFSTYTMSWVRQAPGKGLEWVSTISPGDSFGYYYPDSVQGRFTISRDNAKNSLYLQMNSLRAEDTAVYYCARDIYYNYGAWFAYWGQGTLVTVSS
VL: DIQLTQSPSSLSASVGDRVTITCKASQSVDYDGDSYMNWYQQKPGKAPKLLIYAASTLESGVPSRFSGSGSGTDFTLTISSLQPEDFATYYCQQSNEDPRTFGQGTKVEIK
notes: Humanized variant, human IgG1/kappa, conditioned medium of 293E cells; also called H3 series of hu24F4
- Kd [2]: 13 nM
- koff [2]: 0.00586 s⁻¹
- kon [2]: 452000 M⁻¹ s⁻¹
- EC50 [5]: 0.984 µg/mL
- EC50 [6]: 7.67 µg/mL

B3: hu24F4 H5/L1 C95T (antibody, human IgG1, V domains shown)
VH: DVQLVQSGGGLVKPGGSLRLSCAASGFTFSTYTMSWVRQAPGKGLEWVATISPGDSFGYYYPDSVQGRFTISRDNAKNSLYLQMNRLRAEDTAVYYCTRDIYYNYGAWFAYWGRGTLVTVSS
VL: DIQLTQSPSSLSASVGDRVTITCKASQSVDYDGDSYMNWYQQKPGKAPKLLIYAASTLESGVPSRFSGSGSGTDFTLTISSLQPEDFATYYCQQTNEDPRTFGQGTKVEIK
notes: Heavy chain pYL747 with light chain pYL750; human IgG1/kappa; also called H5/L1 C95T variant
- binding result [7]: binds
